Data from US20260226095A1.

Columns and labels:
[1] = molecular target: human recombinant TNFα (human) (UniProt P01375); assay: SPR, Biacore T200, standard kinetics, antigen immobilized on CM5 chip
[2] = molecular target: human recombinant TNFα (human) (UniProt P01375); assay: ELISA on human recombinant TNFα, anti-His tag and HRP anti-mouse IgG

Chain of human recombinant TNFα (human) (P01375 77-233 limits assumed): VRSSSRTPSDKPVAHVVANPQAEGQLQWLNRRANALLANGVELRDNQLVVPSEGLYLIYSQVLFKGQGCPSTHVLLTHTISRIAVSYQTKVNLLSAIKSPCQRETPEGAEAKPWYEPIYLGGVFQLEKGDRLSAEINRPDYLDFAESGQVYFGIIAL

scFv Ab3 RREF
Kd [1]: 9.3 nM

scFv Ab3 (Adalimumab) of synthesis
EC50 (read off the curve) [2]: 0.09 µg/mL
Kd [1]: 4.3 nM
RUmax [1]: 12 RU
